The subject of data set [1] is nfsb-wt and nfsb-n71s/f124w-transformed E. coli BL21(DE3). In words: Disk assay for FZ sensitivity (disk diffusion, zones of inhibition). It is filed as cell-based. The conditions noted are these: E. coli expressing wild-type enzyme or N71S/F124W mutant; dosage up to 400 μg; 24 hrs. The procedure:
LB plates were uniformly streaked with 0.1 ml of bacterial cell suspensions having an OD600 value of 0.8. Sterile 7 mm filter paper disks saturated with 7 μl of each chemical, including FZ alone, metronidazole (MTZ) alone, and a combination of FZ and MTZ at a ratio of 1/1 by weight, in the amounts indicated in FIG. 4 were placed on the plates. The cells were incubated for 24 hrs before the zones of inhibition were measured.^22

Data set [2] is described as follows: Kinetic study monitoring the rate of FZ disappearance (standard nitroreductase assay of E. coli NfsB). The data set is classed as biochemical. The conditions noted are these: aerobic; for Km / Vmax: FZ 4-256 μM, linear plot; for Km / Vmax / Specific activity / Specific activity relative to wild type: NADPH 2 mM; for Specific activity / Specific activity relative to wild type: against FZ. The procedure:
A kinetic study was carried out by monitoring the rate of FZ disappearance. FZ (4-256 μM) was incubated with purified NfsB proteins (10 μg) under the aerobic conditions described above for 2 h in the presence of NADPH at a fixed concentration of 2 mM.
Data were analyzed and calculated via linear plot (13). The amounts of FZ were obtained via the standard nitroreductase assay of E. coli NfsB in the presence of a fixed concentration of cofactor NADPH (2 mM).

For another data set, the system named is FZ-induced hypnosis. In words: Sleep-time (anti-FZ hypnosis) study in mice. The data set is classed as in vivo, Balb/c mice. The conditions noted are these: for effect on sleep-time in treated mice (in words): FZ-treated Balb/c mice, FIG. 5A. How it is done: Male Balb/c mice were purchased from the Animal Center, College of Medicine, National Taiwan University (NTUMC), and were housed in the air-conditioned animal quarters on a 12-h light/dark cycle (temperature 23-25° C.). The animals had free access to water and rodent laboratory chow (Purina Mills Inc.) with the experimental procedures being approved by the Institutional Care and Use Committee at NTUMC.
A sleep-time study in mice was started at the age of seven weeks (body weight ranged from 17.6-19.2 g) following experimental procedures modified from previous studies.^23 Briefly, mice were divided into three groups (at least 4 mice per group) and injected i.p. with 2 mg/kg body weight of FZ from the stock solution (0.4 mg/ml in corn oil). One minute later, mice in Group I, Group II, and Group III were injected i.v. with a vehicle control, 1 mg/ml of wild-type NfsB enzyme (dissolved in 100 mM potassium phosphate buffer, pH 7.4), and 1 mg/ml of the N71S/F124W mutant enzymes (also dissolved in 100 mM potassium phosphate buffer, pH 7.4), respectively, via the tail lateral veins of the FZ-treated mice. The ability of the treated mice to stand on a stainless steel laboratory holder was examined at various time points. A mouse was characterized as losing the reflex ability if it could not stand on the holder for 10 seconds; A mouse was defined as having regained the reflex ability if it could stand on the holder for at least 10 seconds. The time between losing and regaining the reflex ability was defined as sleep-time and recorded for each group.

A short description of data set [3]: NfsB in mice serum by direct competitive ELISA. The conditions noted are these: 24 hours after the injection. In general terms: ELISA stands for enzyme-linked immunosorbent assay.
Description: The ELISA assay used in this study was a modified version of a previously described method.^24 Briefly, 96-well microtitre plates were coated with 100 μL of anti-NfsB antibody solution (4 μg/ml in PBS; 13) overnight at 4° C., then washed with PBS containing 0.05% Tween 20 (PBST) in triplicate, then incubated with a blocking buffer containing PBST and 1% BSA. NfsB standards (containing 40 μl sera of untreated mice), or samples (containing 40 μl sera from treated mice collected 1, 3, 6, 12, and 24 hours after the treatment) were placed in the above-noted blocking buffer (60 μL) and added to the wells, which were incubated overnight at 4° C. Enzyme tracer solution (100 μl 6×His mAb/HRP, 1:10,000 in PBS) were added to the wells and incubated at 37° C. for 30 min Subsequently, the wells were washed and TMB substrate solution was added (100 μl). After incubation for 15 min at room temperature, a sulfuric acid solution (2N, 50 μl) was added to stop color development. The absorbance was measured at 450 nm. […] NfsB concentration in the sera samples of the treated groups were calculated based on the standard curve.
Data set [4] can be described thus: 7AFZ production from FZ by purified NfsB proteins (HPLC). It is filed as biochemical. The conditions noted are these: for 7AFZ formation: FZ 64 μM, purified NfsB protein 10 μg, NADPH 2 mM, 2 h at 37° C., mean±S.D. from three incubations; for production of 7AFZ compared to the wild-type enzyme (in words): anaerobic conditions, FIG. 2B. How it is done: Production of 7AFZ was performed under both aerobic or anaerobic conditions. For anaerobic incubation, nitrogen was inlet into an anaerobic incubator (Biotrace). The reaction mixture consisted of FZ (64 μM), purified NfsB proteins (10 μg), MgCl2 (3.3 mM), and NADPH (2 mM) in 100 mM potassium phosphate buffer (pH 7.4). After incubation for 2 h at 37° C., the reaction was terminated by the addition of a methanol solution (200 μl) containing bromazepam (1 μg/mL), which acted as an internal control. The reaction products were extracted via sonication and analyzed by HPLC at 240 nm with a procedure described previously.^13 The detection limit for 7AFZ or FZ was less than 3-5 ng with 83-86% of recovery.

Substitutions are numbered along the chain they refer to. Names may count otherwise. “Also recorded” adds a separate entry of the source.

From patent US20130101571A9, “ANTIDOTES FOR NITROBENZODIAZEPINES” (Academia Sinica, priority 2011, published 2013) come the findings set out here.

Regarding `CN1C(=O)CN=C(c2ccccc2F)c2cc([N+](=O)[O-])ccc21` [FZ, flunitrazepam], the “inhibitory effect (zones of inhibition) on E. coli cells” value in data set [1] is recorded as “neither exhibited toxicity nor increased MTZ toxicity; also recorded: did not show any inhibitory effect”.
Turning to `Cc1ncc([N+](=O)[O-])n1CCO` [Metronidazole, metronidazole], the “inhibitory effect (zones of inhibition) on E. coli cells” value in data set [1] is reported as “dose-dependent”.

B1: Wild type: Wild-type E. coli type I nitroreductase NfsB (NP-415110; SEQ ID NO:1), His-tagged recombinant protein (protein)
chain: MDIISVALKRHSTKAFDASKKLTPEQAEQIKTLLQYSPSSTNSQPWHFIVASTEEGKARVAKSAAGNYVFNERKMLDASHVVVFCAKTAMDDVWLKLVVDQEDADGRFATPEAKAANDKGRKFFADMHRKDLHDDAEWMAKQVYLNVGNFLLGVAALGLDAVPIEGFDAAILDAEFGLKEKGYTSLVVVPVGHHSVEDFNATLPKSRLPQNITLTEV
modifications: His tag; E. coli
Turning to B1, in data set [2], the Km (in general, the substrate concentration at which the rate is half of its maximum) came out at 71.4 µM; the Vmax (usually the rate approached at saturating substrate) came to 1.89 µM/min; the Specific activity stood at 82.9 nmol/min/mg protein; the “Specific activity relative to wild type” value came out at 1.0 fold. For the same molecule, the “effect on sleep-time in treated mice (in words)” value in the data set on FZ-induced hypnosis is on record as “significantly reduced the sleep-time”. Besides, the “enzyme remaining in the serum” value in data set [3] is reported as 30%. The same molecule had a 7AFZ formation in data set [4] (aerobic) of 29.52 ± 6.6 ng. In data set [4] (anaerobic), this molecule returned a 7AFZ formation of 51.85 ± 2.19 ng.

B2: F70H (protein)
chain: B1 chain with F70H
Turning to B2, the “production of 7AFZ compared to the wild-type enzyme (in words)” value in data set [4] is on record as “higher activity”.

B3: N71S/F124W: Double mutant N71S/F124W of E. coli type I nitroreductase NfsB (protein)
chain: B1 chain with N71S, F124W
For B3, in data set [2], the Km was found to be 111 µM, the Vmax amounted to 3.13 µM/min, the “Vmax relative to wild-type enzyme” value is recorded as 1.7 fold and the Specific activity was found to be 195.5 nmol/min/mg protein. For the same molecule, the “Specific activity relative to wild type” value in data set [2] is given as 2.4 fold. In addition, the “effect on sleep-time in treated mice (in words)” value in the data set with FZ-induced hypnosis is given as “significantly reduced the sleep-time”. Also, the “decrease of sleeping time compared to the vehicle group” value in the data set with FZ-induced hypnosis (FZ-treated mice) is recorded as 50%. The molecule also came in with a sleeping time in the data set with FZ-induced hypnosis (FZ-treated mice, enzyme 1 mg/ml i.v. one minute after FZ) of 138 ± 22 min. Besides, in data set [4] (aerobic), the “7AFZ formation relative to wild-type enzyme” value came out at 11.77 fold and the 7AFZ formation was 347.56 ± 16.59 ng. Also, in data set [4] (anaerobic), the “7AFZ formation relative to wild-type enzyme” value was found to be 5.6 fold and the 7AFZ formation amounted to 290.52 ± 18.38 ng.

B4: Y68G (protein)
chain: B1 chain with Y68G
On to B4, for which, in data set [4], the “production of 7AFZ compared to the wild-type enzyme (in words)” value is reported as “significantly increased”.

B5: F124W (protein)
chain: B1 chain with F124W
Regarding B5, in data set [4] (anaerobic), the “7AFZ formation relative to wild-type enzyme” value is 2.7 fold and the 7AFZ formation was found to be 141.88 ± 5.28 ng. Also, the “production of 7AFZ compared to the wild-type enzyme (in words)” value in data set [4] is recorded as “significantly increased”.

B6: F70Y (protein)
chain: B1 chain with F70Y
For the molecule B6, in data set [4], the “production of 7AFZ compared to the wild-type enzyme (in words)” value was “higher activity”.

B7: F124Y (protein)
chain: B1 chain with F124Y
Consider B7, for which, in data set [4], the “production of 7AFZ compared to the wild-type enzyme (in words)” value is recorded as “higher activity”.

B8: F124H (protein)
chain: B1 chain with F124H
Regarding B8, in data set [4], the “production of 7AFZ compared to the wild-type enzyme (in words)” value is listed as “significantly increased”.

B9: T41L (protein)
chain: B1 chain with T41L
As for B9, the “production of 7AFZ compared to the wild-type enzyme (in words)” value in data set [4] is listed as “significantly increased”.

B10: N71S (protein)
chain: B1 chain with N71S
For the molecule B10, in data set [4] (anaerobic), the “7AFZ formation relative to wild-type enzyme” value came to 2.4 fold and the 7AFZ formation amounted to 126 ± 2.06 ng. Moreover, in data set [4], the “production of 7AFZ compared to the wild-type enzyme (in words)” value is reported as “significantly increased”.

B11: S40G (protein)
chain: B1 chain with S40G
Turning to B11, the “production of 7AFZ compared to the wild-type enzyme (in words)” value in data set [4] was “higher activity”.
